Assays:
[1] = target: T1, human C5a receptor (human, UniProt P21730 1-350); experiment: cell-based or functional assay
T1 chain: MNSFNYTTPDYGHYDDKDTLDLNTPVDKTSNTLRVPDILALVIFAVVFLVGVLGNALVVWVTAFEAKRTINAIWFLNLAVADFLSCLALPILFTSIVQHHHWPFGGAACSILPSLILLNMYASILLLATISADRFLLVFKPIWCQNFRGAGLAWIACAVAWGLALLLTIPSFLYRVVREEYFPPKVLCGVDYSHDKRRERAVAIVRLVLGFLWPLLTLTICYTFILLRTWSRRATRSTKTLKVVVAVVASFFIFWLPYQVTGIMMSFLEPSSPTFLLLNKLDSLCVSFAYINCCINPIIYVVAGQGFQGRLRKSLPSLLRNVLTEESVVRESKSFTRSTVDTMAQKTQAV

[2] = target: T2, chimeric receptor 11. mmHm (mouse; human, UniProt P30993 1-111; P30993 264-351, limits assumed); experiment: flow cytometry on transiently transfected L1.2 cells
T2 construct: Transiently expressed on mouse L1.2 cells
T2 sequence: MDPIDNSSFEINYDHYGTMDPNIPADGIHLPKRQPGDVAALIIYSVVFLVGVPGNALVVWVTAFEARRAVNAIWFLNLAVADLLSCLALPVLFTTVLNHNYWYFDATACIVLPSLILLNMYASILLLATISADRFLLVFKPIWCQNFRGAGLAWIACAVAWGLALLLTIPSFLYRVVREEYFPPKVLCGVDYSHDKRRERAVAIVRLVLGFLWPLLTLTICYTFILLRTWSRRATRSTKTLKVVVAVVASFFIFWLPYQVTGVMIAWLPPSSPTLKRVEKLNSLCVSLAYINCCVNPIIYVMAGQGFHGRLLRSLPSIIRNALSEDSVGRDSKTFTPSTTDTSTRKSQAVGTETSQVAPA
Experimental: A series of chimeric receptors comprising segments of mouse and human C5aR were constructed to identify the region of the C5a receptor that the antibodies bound. […] Each recombinant vector (5 μg diluted in DMEM) encoding a different chimeric receptor was transfected into 5×10⁵ mouse L1.2 cells using Lipofectamine 2000 (Invitrogen). Cells were grown in DMEM or RPMI (Invitrogen) plus 10% foetal bovine serum (Hyclone). After 24 hours or 48 hours, cells were harvested by centrifugation at 1,500 rpm for 5 min and resuspended in FACS buffer (phosphate buffered saline plus 2% bovine serum albumin). For staining with hAb-Q, 0.5×10⁵ transfected cells were incubated with 5 or 10 μg/ml antibody in a volume of 50 μl per well at 4° C. for 20 minutes. Cells were pelleted as above and rinsed 3 times with 150 μl FACS buffer before addition of 50 μl FITC-conjugated anti-human IgG diluted 1:200 or 1:300 (Sigma, F1641). This mix was incubated for 20 min at 4° C. before cells were pelleted, washed with FACS buffer 3 times and finally resuspended in 150-200 μl FACS buffer. Samples were analysed on a FACS Calibur (BD Biosciences).
To confirm that the humanised antibody hAb-Q, which was derived from mouse mAb 7F3 by CDR grafting, and therefore should contain the same antigen-binding site, had the same staining pattern as 7F3, transiently transfected cells expressing the different chimeric human/mouse C5aR were stained with hAb-Q and analysed by flow cytometry. The pattern of staining by hAb-Q was identical to that observed with 7F3. There was no staining by the secondary antibody (anti-hIgG-FITC) alone.

[3] = target: T1, human C5a receptor; experiment: flow cytometry of bound hAb-Q (anti-hIgG-FITC) on human neutrophils, pre-chemotaxis samples
Experimental: (§1) The FACSCalibur flow cytometer was set up with compensation parameters established for channel FL-1. Samples were acquired to exclude dead cells and debris. Neutrophils were identified based on FSC and SSC. The level of bound hAb-Q (anti-hIgG-FITC) or free C5aR (hAb-Q-FITC) was determined by determining the FITC (FL-1) mean fluorescence intensity (MFI) of the neutrophils in a sample.
(§2) Four experiments were carried out. Briefly, purified neutrophils isolated from the venous blood of a healthy volunteer were preincubated for 10 min with hAb-Q at concentrations ranging from 0.001 to 100 μg/ml. A small aliquot of this mix was taken to determine the amount of antibody bound receptor (% receptor occupancy) and the remainder was placed in the upper chamber of a transwell plate. C5a (10 nM) was placed in the lower chamber. After 30 min incubation, the number of cells that had migrated into the lower chamber was determined using FACS. The amount of bound antibody on the neutrophils in both the lower and upper chambers at the end of migration was also determined, using FITC-labelled anti-hIgG and flow cytometry. The level of free receptor (no bound antibody) was determined in one experiment by incubating the neutrophils with FITC-labelled hAb-Q before and after migration.

[4] = target: T1, human C5a receptor; experiment: flow cytometry of bound hAb-Q (anti-hIgG-FITC) on human neutrophils, post-chemotaxis lower chamber
Experimental: as §1, §2

[5] = target: T1, human C5a receptor; experiment: PK/PD model (NONMEM) fitted to serum concentration and receptor occupancy in hC5aR transgenic mice, toxicology study column
Source text: (§3) NONMEM VI (non-linear mixed effects modelling software) with first order conditional estimation (FOCE) was used for modelling, and S-PLUS® 8.0 (Insigthful) was used for graphics and data handling. Evaluation of—and discrimination between—intermediate models was based on objective function values and standard graphical evaluation methods. In terms of objective function value, changes in this value were assumed to be chi-squared distributed (for nested models), and criteria for expanding the model were defined and used accordingly.
(§4) Toxicokinetics from the toxicology study in transgenic mice and PK/PD data from the pharmacology study was integrated to assess the relationship between pharmacokinetics and occupancy. […] This is consistent with other studies, observing higher clearance for high doses, due to saturation of the FcRN receptor (Hansen and Balthasar, 2002).

[6] = target: T1, human C5a receptor; experiment: PK/PD model (NONMEM) fitted to serum concentration and receptor occupancy in hC5aR transgenic mice, pharmacology study column
Source text: as §3, §4

B1: humanized anti-C5aR antibody hAb-Q (antibody, human IgG4 S228P, kappa)
light: DVVMTQSPLSLPVTLGEPASISCRSSQSLVHSNGNTYLHWYLQKPGQSPQLLIYKVSNRFSGVPDRFSGSGSGTDFTLKISRVEAEDVGVYFCSQSTLVPLTFGQGTKLEIKRTVAAPSVFIFPPSDEQLKSGTASVVCLLNNFYPREAKVQWKVDNALQSGNSQESVTEQDSKDSTYSLSSTLTLSKADYEKHKVYACEVTHQGLSSPVTKSFNRGEC
heavy: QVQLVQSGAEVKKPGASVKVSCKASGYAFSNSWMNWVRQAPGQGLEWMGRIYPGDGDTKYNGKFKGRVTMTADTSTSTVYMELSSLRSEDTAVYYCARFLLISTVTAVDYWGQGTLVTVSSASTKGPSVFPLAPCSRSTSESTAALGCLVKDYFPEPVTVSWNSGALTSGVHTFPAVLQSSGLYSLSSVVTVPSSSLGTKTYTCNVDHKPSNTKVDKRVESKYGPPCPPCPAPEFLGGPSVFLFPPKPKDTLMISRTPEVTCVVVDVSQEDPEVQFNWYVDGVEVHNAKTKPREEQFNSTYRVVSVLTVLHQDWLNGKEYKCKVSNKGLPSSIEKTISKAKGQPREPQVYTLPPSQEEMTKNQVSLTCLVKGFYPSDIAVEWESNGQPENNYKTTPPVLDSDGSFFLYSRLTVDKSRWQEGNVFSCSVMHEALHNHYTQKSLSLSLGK
notes: IgG4 with the Ser228Pro mutation; also called antibody Q; anti-C5aR ab
Ab conc. tested but not effective at blocking Ca2+-flux (human neutrophils, 1 nM C5a) [1]: 0.5 µg/mL
binding result [2]: binds
EC50 [3]: 0.3 µg/mL
EC50 [4]: 1.1 µg/mL
Kd [5]: 0.175 µg/mL
Kd [6]: 0.175 µg/mL
